In assay [1] the target is T1, human GITR expressed on cells (human, UniProt Q9Y5U5 27-241).
T1 sequence: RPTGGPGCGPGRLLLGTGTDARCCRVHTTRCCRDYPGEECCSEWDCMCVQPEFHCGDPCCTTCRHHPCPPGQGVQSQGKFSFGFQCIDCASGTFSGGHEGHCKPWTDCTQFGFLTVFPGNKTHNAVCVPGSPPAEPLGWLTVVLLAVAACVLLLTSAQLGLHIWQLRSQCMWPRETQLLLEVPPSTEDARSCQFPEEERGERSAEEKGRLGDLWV
The experiment in a line: cell-based or functional assay.

For a further assay, the target named is CD40 (human, UniProt P25942). Description: specificity ELISA, bacterial lysate on HisGrab nickel plate. The procedure:
(§1) For the specificity ELISA, a crude cell lysate was made from bacteria expressing members of the TNFRSF family. To prevent nonspecific binding to the plate 50 μL of 5% BSA was added per mL of bacterial lysate. […] The plate was then rinsed three times with PBST, then MAB was diluted to 0.5 μg/mL in 10% FBS in PBS and 100 μL was added to each well. The plate was incubated for 1 hour at room temperature and then rinsed three times with PBST. Anti-human kappa antibody (Sigma #A7164) conjugated to HRP was diluted 1:5000 in 1:1 PBST: 10% FBS in PBS and 100 μL added to each well. The plate was incubated for 1 hour at room temperature, and then washed three times with PBST. 100 μL of SureBlue TMB substrate was added to each well and the plate was incubated for about 10 min at room temperature before stopping the reaction with 100 μL /well of 2N H₂SO₄.
For orientation: In an ELISA, binding on a coated surface is turned into a signal by an enzyme label.

The next assay deals with T2, CD137 (human, UniProt Q07011).
T2 construct: also called TNFRSF9
Described as above. How it is done:
as §1

The target of the next assay is T3, HVEM (human, UniProt Q92956).
T3 sequence (receptor, looked up): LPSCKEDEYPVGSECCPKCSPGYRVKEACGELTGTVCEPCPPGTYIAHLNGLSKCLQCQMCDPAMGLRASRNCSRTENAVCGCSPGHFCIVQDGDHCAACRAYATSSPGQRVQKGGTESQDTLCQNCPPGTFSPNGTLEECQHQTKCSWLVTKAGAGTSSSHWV
The description is as above. How it is done:
as §1

The target of the next assay is T4, OPG (human, UniProt O00300).
T4 sequence (receptor, looked up): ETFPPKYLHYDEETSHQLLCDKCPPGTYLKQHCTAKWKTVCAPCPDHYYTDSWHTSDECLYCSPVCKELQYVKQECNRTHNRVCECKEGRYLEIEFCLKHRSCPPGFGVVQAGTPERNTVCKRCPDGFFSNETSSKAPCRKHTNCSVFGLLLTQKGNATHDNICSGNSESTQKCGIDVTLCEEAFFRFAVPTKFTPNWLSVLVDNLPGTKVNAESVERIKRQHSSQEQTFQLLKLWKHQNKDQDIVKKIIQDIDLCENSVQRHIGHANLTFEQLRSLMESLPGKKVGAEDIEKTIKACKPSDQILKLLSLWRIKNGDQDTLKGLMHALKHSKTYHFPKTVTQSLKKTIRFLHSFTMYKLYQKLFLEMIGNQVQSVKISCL
The description is as above. How it is done:
as §1

The target of the next assay is T5, DcR3 (human, UniProt O95407).
T5 sequence (receptor, looked up): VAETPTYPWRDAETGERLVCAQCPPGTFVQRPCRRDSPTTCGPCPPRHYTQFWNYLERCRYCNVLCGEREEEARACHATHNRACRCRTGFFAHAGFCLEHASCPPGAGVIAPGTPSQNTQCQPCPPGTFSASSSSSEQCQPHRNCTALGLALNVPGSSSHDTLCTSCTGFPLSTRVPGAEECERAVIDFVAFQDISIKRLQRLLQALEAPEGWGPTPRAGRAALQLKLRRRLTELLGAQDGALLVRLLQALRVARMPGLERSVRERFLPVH
The assay is described as above. How it is done:
as §1

A further assay deals with TNFR3 (human, UniProt P36941). Described as above. How it is done:
as §1

Another assay deals with T6, OX40 (human, UniProt P43489).
T6 sequence (receptor, looked up): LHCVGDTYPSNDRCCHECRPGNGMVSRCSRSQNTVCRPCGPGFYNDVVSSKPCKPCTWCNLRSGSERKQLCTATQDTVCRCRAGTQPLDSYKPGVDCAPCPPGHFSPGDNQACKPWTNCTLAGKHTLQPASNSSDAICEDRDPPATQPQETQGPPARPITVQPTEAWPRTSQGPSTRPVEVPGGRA
Described as above. The procedure: as §1

For a further assay, the target named is T7, TNFR1 (human, UniProt P19438).
T7 sequence (receptor, looked up): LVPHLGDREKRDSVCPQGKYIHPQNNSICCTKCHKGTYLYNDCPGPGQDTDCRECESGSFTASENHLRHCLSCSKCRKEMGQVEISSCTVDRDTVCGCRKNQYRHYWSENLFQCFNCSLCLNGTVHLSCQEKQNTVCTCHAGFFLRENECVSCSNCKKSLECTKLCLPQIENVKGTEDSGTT
Described as above. The procedure:
as §1

Another assay addresses T8, CD30 (human, UniProt P28908).
T8 sequence (receptor, looked up): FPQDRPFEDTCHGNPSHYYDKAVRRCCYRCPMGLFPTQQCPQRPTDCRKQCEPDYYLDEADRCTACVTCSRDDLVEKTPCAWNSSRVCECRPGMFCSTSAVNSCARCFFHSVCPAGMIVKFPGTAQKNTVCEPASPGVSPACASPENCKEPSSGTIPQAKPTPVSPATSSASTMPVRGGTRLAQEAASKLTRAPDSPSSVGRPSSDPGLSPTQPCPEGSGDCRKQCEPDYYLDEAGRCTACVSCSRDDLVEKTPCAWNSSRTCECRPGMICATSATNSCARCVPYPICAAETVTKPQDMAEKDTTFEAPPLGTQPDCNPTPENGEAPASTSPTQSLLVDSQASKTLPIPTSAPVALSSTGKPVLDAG
Described as above. The procedure:
as §1

Another assay concerns the target T9, BAFFR (human, UniProt Q96RJ3).
T9 sequence (receptor, looked up): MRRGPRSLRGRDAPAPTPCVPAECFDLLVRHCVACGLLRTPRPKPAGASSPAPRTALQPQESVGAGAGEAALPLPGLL
The assay is described as above. The procedure:
as §1

Numbering of substitutions follows the chain as printed.

Sequence of CD40 (P25942 21-193 limits assumed): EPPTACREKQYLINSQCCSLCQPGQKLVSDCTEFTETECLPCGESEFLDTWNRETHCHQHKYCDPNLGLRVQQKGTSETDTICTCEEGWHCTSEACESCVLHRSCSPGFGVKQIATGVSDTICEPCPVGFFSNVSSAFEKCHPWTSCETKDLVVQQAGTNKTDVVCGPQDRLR
Sequence of TNFR3 (P36941 31-227 limits assumed): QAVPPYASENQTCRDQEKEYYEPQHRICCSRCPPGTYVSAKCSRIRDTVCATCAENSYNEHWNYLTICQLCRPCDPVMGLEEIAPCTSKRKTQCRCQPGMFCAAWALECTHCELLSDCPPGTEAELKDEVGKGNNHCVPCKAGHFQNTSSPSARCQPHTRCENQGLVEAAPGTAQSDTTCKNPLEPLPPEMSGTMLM

B1: MAB4 (IgG1 kappa) (antibody, V domains shown)
VH: EVQLVESGGGLVQSGGSLRLSCAASGFSLSSYGVDWVRQAPGKGLEWVGVIWGGGGTYYASSLMGRFTISRDNSKNTLYLQMNSLRAEDTAVYYCAKHAYGHDGGFAMDYWGQGTLVTVSS
VL: EIVMTQSPATLSVSPGERATLSCRASESVSSNVAWYQQRPGQAPRLLIYGASNRATGIPARFSGSGSGTDFTLTISRLEPEDFAVYYCGQSYSYPFTFGQGTKLEIKR
As for B1, in assay [1], the “EC50, NFκB-luciferase reporter in 293 cells overexpressing human GITR, antibody cross-linked” value is about 2.5 nM. Also, the binding result with CD40, in the assay with CD137, with HVEM, with OPG, in the assay with DcR3 and in the assay with TNFR3 was “no binding (tested: not on the sheet; paragraph 335: 0.5 µg/mL)” in each case. Moreover, the binding result in the assay with OX40, in the assay with TNFR1, in the assay with CD30 and in the assay with BAFFR was “no binding (tested: not on the sheet; paragraph 335: 0.5 µg/mL)” throughout.

B2: MAB5 (IgG1 kappa) (antibody, V domains shown)
VH: B1 VH with V48L, A60T
VL: B1 VL
notes: also called MABS (misprint of MAB5)
As to B2, the “EC50, NFκB-luciferase reporter in 293 cells overexpressing human GITR, antibody cross-linked” value in assay [1] is about 2.5 nM. The binding result with CD40, with CD137, with HVEM, with OPG, in the assay with DcR3 and with TNFR3 was “no binding (tested: not on the sheet; paragraph 335: 0.5 µg/mL)” each time. In addition, the binding result with OX40, with TNFR1, with CD30 and with BAFFR was “no binding (tested: not on the sheet; paragraph 335: 0.5 µg/mL)” each time.

These data come from US20170306037A1 (Novartis, published 2017).
